Results as given in PMC12669046.

Biological target: T1, MS2 coat protein (fluorescently labelled) (MS2 virus) (UniProt P03612)
T1 sequence: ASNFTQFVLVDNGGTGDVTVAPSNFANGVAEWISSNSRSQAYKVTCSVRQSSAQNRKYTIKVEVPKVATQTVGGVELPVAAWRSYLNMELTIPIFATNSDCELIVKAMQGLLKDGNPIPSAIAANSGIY
Test: RNA-MaP
Details: RNA-MaP on MiSeq chip: MS2 protein 0.7-1,500 nM, incubation 0.8-1.5 h (lowest concentrations) to 10-20 min (highest), buffer and temperature per ref. 14, not …

Sequence	binding signal (fold (qARLB, off Kd / on Kd))	binding signal (200 nM input RNA S1 (on state), scale: fold)
CCGAAAACGGGAACCUUAUUCUUUAUGCAUGUUCAGGAAACUGAGCAUGCAAACAUGAGGAUCACCCAUGUGUUGUGGGAUCAGC [6348262 C85 G11 Eli Fisker mod (ratio sensor, top R2)]	11	–
AGUCCACGCUGACGUGGACAAAAGCAUGUACAUGAGGAUCACCCAUGUCAUGUACAAGCUUUUUGCUCGUCUUAAAA	–	110
GAUUACGAGAGUGUUAUUCUUUGGAGUGGGACAUGAGGAUCACCCAUGUAAAUGUACAUGUUAGCUGCUUAGCAGUUGACAUGAU [6248647 U62 jandersonlee mod (ratio sensor, top R3)]	34	–
